From patent publication CN114106174A (SUZHOU SCENE MEDICAL SCIENCE AND TECH LIMITED COMPANY, dated 2022)

T1: OX40 on OX40-overexpressing cells (OX40过表达细胞表面OX40) (UniProt P43489 29-277, limits assumed)
T1 construct: whole, on cells; The cell line and the construct of the overexpressing cells are not described; also called CD134; TNFRSF4
T1 sequence (looked up): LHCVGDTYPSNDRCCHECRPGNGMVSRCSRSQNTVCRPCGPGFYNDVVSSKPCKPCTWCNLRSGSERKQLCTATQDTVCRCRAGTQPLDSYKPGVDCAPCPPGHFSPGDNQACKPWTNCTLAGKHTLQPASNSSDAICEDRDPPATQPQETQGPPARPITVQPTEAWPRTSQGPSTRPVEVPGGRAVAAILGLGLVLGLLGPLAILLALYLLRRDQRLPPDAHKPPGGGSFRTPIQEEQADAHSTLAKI


Target: T1, OX40 on OX40-overexpressing cells …
Assay: flow cytometry, hybridoma supernatant on OX40-overexpressing cells, goat anti-mouse IgG-PE

Row | Binder | Y586通道PE荧光值
1 | 24F8-7 (antibody, V domains shown) VH: QVQLQESGPGLVKPSGTLSLTCAVSGGSISSYNWWSWVRQPPGKGLEWIGEIYHSGSTNYNPSLKSRVTISVDKSKNQFSLKLSSVTAADTAVYYCARDEDYYGSGNYYHWGQGTLVTVSS VL: not shown | 437000
2 | 30B1-3 (antibody, V domains shown) VH: not shown VL: EIVLTQSPGTLSLSPGERATFSCRASQSVSGSYLAWYQQKPGQAPRLLIHGASSRATGIPDRFSGSGSGTDFTLTISRLEPEDFAVYYCLQYGSSPLTFGGGTKVEIKR | 208000
3 | 20D2-12 (antibody, V domains shown) VH: QVQLVESGGGLVKPGGSLRLSCAASGFTFSDYYMSWIRQAPGRGLEWISYISGSDSTIYYEDSVMGRFTISRDNAKNSLYLQMNSLRAEDTAVYYCARDRDVYGYSGYGYFDYWGQGTLVTVSS VL: EIVLTQSPGTLSLSPGERATLSCRASQSVSSRYLAWYQQKPGQAPRLLIYGASNRATGMPDRFSGSGSGTDFTLTISRLEPEDFAVYYCQQYGSSPITFGQGTRLEIKR | 540000
4 | 21D2-3 (antibody, V domains shown) VH: QVQLVESGGGLVKPGGSLRLSCAASGFTFSDYYMSWIRQAPGKGLEWVSYISSSGTTIYCADSVKGRFTISRDNAKNSLYLQMNSLRAEDTAVYYCARDSSTWYEGNYFDYWGQGTLVTVSS VL: not shown | 202000
5 | 55H6-6 (antibody, V domains shown) VH: QVQLVQSGAEVKKPGASVKVSCKASGYTFTSYGISWVRQAPGQGLEWMGWISAYNGHTNYAQKLQGRVTMTTDTSTNTAYMELWSLRSDDTAVYYCTSDYGDYWGQGTLVTVSS VL: DVVVTQSPLSLPVTLGQPASISCRSSQSLVYSDGNTNLYWFQQRPGQSPRRLIYQVSNRDSGVPDRFSGSGSGTDFTLKISRVEAEDVGVYYCMQGTHWPPALTFGGGTEVEIKR | 479000

The next lines start with the values.

Row | Y586通道PE荧光值 | Binder
6 | 170000 | 1F10-12-3 (antibody, V domains shown) VH: QVQLQESGPGLVKPSGTLSLTCAVSGGSISNSNWWNWVRQPPGRGLEWIGEIYHSGSTNYNPSLKSRVTISVDKSKNQFSLKLTSVTAADTAVYYCARYSTPFFDYWGQGNLVTVSS VL: DIQMTQSPSSLSASVGDRVTITCRASQSISNYLNWYQQKQGKAPKLLIYGASSLQSGVPSRFSGSGSGTDFTLTINSLQPEDFATYCCQQSYNNPLTFGGGTKVEIKR
7 | 344000 | 24E10-4 (antibody, V domains shown) VH: QVQMQESGPGLVKPSGTLSLTCAVSGGSISSSKWWSWVRQPPGKGLEWIGEIYHSGSTNYNPSLKSRVTISIDKSKNQFSLRLTSVTAADTAVYYCARGDVLLWFGGQGTLVTVSS VL: EIVLTQSPGTLSLSPGERATLSCWASQSVSSTYLAWYQQKPGQAPRLLIYGASIRATGIPDRFSGSGSGTDFTLTISSLEPEDFAVYYCQQYGSSPITFGQGTRLEIKR
8 | 352000 | 20G6-7-1 (antibody, V domains shown) VH: QVQLQESGPGLVKPSGTLSLTCAVSGGSISSSNWWSWVRQPPGKGLEWIGEIYHSGNTNYNPSLKSRVTISVDKSKNQFSLKLSSVTAADTAVYYCARGGTTFDYWGQGTLVTVSS VL: EIVLMQYPGTLSLSSGERATLSCRASQSVSSRYLAWYQQKPGQAPRLLIYGASNRASGMPDRFSGSGSGTEFTLTISSLEPEDFAMYYCQQYGSSPITFGQGTRVEIKR
9 | 181000 | 15A7-6 (antibody, V domains shown) VH: QVQLQESGPGLVKPSGTLSLTCAVSGGSINSSSWWSWVRQPPGKGLEWIGEIYHSGDTNYNPSLKSRVAISVDKSKNQFSLKLSSVTAADTAVYYCARDQADYFGSGNYVYWGQGTLVTVSS VL: EIVLMQYPGTLSLSSGERRVLSCRPSQSVSSSYLAWYQQKPGQAPRLLIYGASSRASGIPDRFSGSGSGTDFTLTISRLEPEDFAVYYCQQYGSLPITFGQGTRVEIKR
10 | 274000 | 24F10-1 (antibody, V domains shown) VH: QVQLQESGPGLVKPSGNLSLTCVVSGASIINNNWWTWVRQSPGKGLEWIGEIFHSGTTNYNPSLKNRVTISVDKAKNQFSLNLKSVTAADTAVYYCVAYVSGTYYNFDYWGQGTLVTVSS VL: not shown
